Data on five molecules can be found in article PMC11234457, “Antitumor Effect of Anti‐c‐Myc Aptamer‐Based PROTAC for Degradation of the c‐Myc Protein”.

Data set [1] deals with T1, c-Myc (Homo sapiens, UniProt P01106 16-454). Description: ELISA; ELISA: c-Myc coated on microplate (100 mM NaHCO3 pH 9.6, 4 C overnight), 2% BSA in PBST block, binding buffer (composition not in material), RT 30 min. Particulars: protein: commercial; tags: none (untagged).
The target of data set [2] is T1, c-Myc. Description: ELISA; comparable to MA9; ELISA: c-Myc coated on microplate (100 mM NaHCO3 pH 9.6, 4 C overnight), 2% BSA in PBST block, binding buffer (composition not in material), RT 30 min. The note with it: protein: commercial; tags: none (untagged); label: 5' biotin; FAM; cy3; cloverleaf (predicted).
The target in data set [3] is T1, c-Myc. Description: competition ELISA; 200 nM ProMyc, 50 ng c-Myc; ELISA: c-Myc coated on microplate (100 mM NaHCO3 pH 9.6, 4 C overnight), 2% BSA in PBST block, binding buffer (composition not in material), RT 30 min. The note with it: protein: commercial; tags: none (untagged); cloverleaf (predicted).
For data set [4], the target named is T1, c-Myc. Description: competition ELISA; affinity consistent with ProMyc; ELISA: c-Myc coated on microplate (100 mM NaHCO3 pH 9.6, 4 C overnight), 2% BSA in PBST block, binding buffer (composition not in material), RT 30 min. Particulars: protein: commercial; tags: none (untagged); cloverleaf (predicted).
Data set [5] has as its target T1, c-Myc. Description: ELISA; 200 nM aptamer, 100 ng c-Myc/well; ELISA: c-Myc coated on microplate (100 mM NaHCO3 pH 9.6, 4 C overnight), 2% BSA in PBST block, binding buffer (composition not in material), RT 30 min. The note with it: protein: commercial; tags: none (untagged); label: 5' biotin (ELISA, pull-down); FAM (flow).

T1 sequence (P01106 16-454): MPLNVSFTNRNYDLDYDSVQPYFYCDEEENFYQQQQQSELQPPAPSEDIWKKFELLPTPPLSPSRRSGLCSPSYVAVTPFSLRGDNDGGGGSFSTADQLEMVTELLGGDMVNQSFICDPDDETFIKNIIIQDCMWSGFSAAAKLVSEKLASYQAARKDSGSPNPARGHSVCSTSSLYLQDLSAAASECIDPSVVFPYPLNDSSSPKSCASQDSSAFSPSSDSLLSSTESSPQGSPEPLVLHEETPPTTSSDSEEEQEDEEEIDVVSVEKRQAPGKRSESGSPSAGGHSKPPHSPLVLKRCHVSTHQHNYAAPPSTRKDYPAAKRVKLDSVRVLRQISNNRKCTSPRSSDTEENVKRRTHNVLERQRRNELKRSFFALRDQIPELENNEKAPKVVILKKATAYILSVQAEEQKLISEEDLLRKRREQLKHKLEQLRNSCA

B1: MA9C1-mut (structured_DNA)
DNA: CGTTAATTCTGTTCGTTCTCATGGCGAACCCTGTATGACACGTTTGACGGGGAGTAACG
For B1, in data set [1], the binding result is given as “no binding”.

B2: MA9C1 (structured_DNA)
DNA: CGTTACTTCTGTTCGTTCTCATGGCGAACCCTGTATGGCGCGTAAGTCGGGGAGTAACG
Turning to B2, the binding result in data set [2] is on record as “binds”.

B3: ProMyc (structured_DNA)
DNA: CGTTACTTCTGTTCGTTCTCATGGCGAACCCTGTATGGCGCGTAAGTCGGGGAGTAACG
modifications: 5' NH2-C6 linked to pomalidomide-PEG4
Consider B3, for which the binding result in data set [3] is “binds”.

B4: ProMyc-VHL (structured_DNA)
DNA: CGTTACTTCTGTTCGTTCTCATGGCGAACCCTGTATGGCGCGTAAGTCGGGGAGTAACG
modifications: 5' NH2-C6 linked to (S,R,S)-AHPC-PEG5
As to B4, in data set [4], the binding result is “binds”.

B5: MA9 (ssDNA)
DNA: CGTTACTTCTGTTCGTTCTCATGGCGAACCCTGTATGGCGCGTAAGTCGGGGAGTAACGTCTGCCTAGTTCCTTGTCTGATCTCCA
For B5, the binding result in data set [5] was “binds”.
